Values joined by “and” are separate entries in the source; they are usually repeats but may differ in a detail not shown here. Equal entries are not always repeated.
T1: uncomplexed IL-15 Receptor α (human)
T1 construct: also called IL-15Rα; IL15Rα
T1 chain: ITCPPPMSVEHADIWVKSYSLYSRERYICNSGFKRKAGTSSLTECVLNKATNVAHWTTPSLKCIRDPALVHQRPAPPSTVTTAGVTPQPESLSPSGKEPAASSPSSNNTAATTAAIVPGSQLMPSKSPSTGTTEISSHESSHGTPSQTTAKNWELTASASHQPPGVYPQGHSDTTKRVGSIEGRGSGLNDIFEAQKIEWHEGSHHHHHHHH

T2: IL-4 (UniProt P05112 25-153)
T2 sequence (looked up): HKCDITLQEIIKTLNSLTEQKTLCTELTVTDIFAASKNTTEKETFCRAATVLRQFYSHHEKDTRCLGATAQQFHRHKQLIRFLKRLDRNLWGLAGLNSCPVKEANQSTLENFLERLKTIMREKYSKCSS

T3: IL-7 (UniProt P13232 26-177)
T3 sequence (looked up): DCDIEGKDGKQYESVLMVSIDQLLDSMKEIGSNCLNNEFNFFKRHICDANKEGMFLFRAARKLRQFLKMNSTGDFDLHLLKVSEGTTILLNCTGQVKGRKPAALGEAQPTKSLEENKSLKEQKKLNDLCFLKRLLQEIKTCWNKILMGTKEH


Tests used:
[1] = target: T4, human IL-15 complexed with the IL-15 Receptor-alpha (human, UniProt P40933 49-162); assay: SPR
T4 construct: Co-expressed in HEK293F from plasmids in a 1:1 ratio; also called IL-15/IL-15Rα complex
Target sequence in this assay (P40933 49-162 limits assumed, one chain of several): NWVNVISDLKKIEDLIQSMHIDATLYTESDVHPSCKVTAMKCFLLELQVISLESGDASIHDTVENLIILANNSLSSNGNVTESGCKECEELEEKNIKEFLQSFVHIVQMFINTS

[2] = target: T4, human IL-15 complexed with the IL-15 …; assay: cell-based or functional assay
Target sequence in this assay (P40933 49-162 limits assumed, one chain of several): as above

[3] = target: T4, human IL-15 complexed with the IL-15 …; assay: SPR, run 2
Target sequence in this assay (P40933 49-162 limits assumed, one chain of several): as above

[4] = target: T4, human IL-15 complexed with the IL-15 …; assay: SPR, run 4
Target sequence in this assay (P40933 49-162 limits assumed, one chain of several): as above

[5] = target: T4, human IL-15 complexed with the IL-15 …; assay: SPR, run 5
Target sequence in this assay (P40933 49-162 limits assumed, one chain of several): as above

[6] = target: T4, human IL-15 complexed with the IL-15 …; assay: SPR, run 6
Target sequence in this assay (P40933 49-162 limits assumed, one chain of several): as above

[7] = target: T4, human IL-15 complexed with the IL-15 …; assay: cell-based or functional assay; remark: listed apart in the source
[8] = target: T1, uncomplexed IL-15 Receptor α; assay: ELISA and cELISA, hybridoma supernatant
Description: Microtiter plates were coated with purified IL-15 or purified IL-15Rα or purified IL-15 complex. Briefly, microtiter plates were coated with purified protein in PBS and then blocked with irrelevant proteins such as bovine serum albumin (BSA) diluted in PBS. Dilutions of hybridoma supernatants were added to each well and incubated for 1-2 hours at 37° C. The plates were washed with PBS/TWEEN® 20, and then incubated with a goat-anti-human IgG Fc-specific polyclonal reagent conjugated to a suitable detection reagent […] for 1 hour at 37° C. […] Hybridomas that produced antibodies showing positive reactivity with the IL-15 complex but not with IL-15Rα were selected for further characterization.
cELISA was carried out as follows. HEK cells were transfected with DNA encoding IL-15 and IL-15Rα such that they expressed the IL-15 complex. The transfected HEK cells were coated onto an ELISA plate and dilutions of hybridoma supernatants was applied to the plate so that it could bind to the IL-15 complex expressed on the surface of the cells. The assay was repeated using HEK cells transfected with IL-15Rα such that they expressed uncomplexed IL-15Rα. The advantage of using cELISA in addition to classical ELISA is that a native protein complex is used to screen the antibodies.

[9] = target: T4, human IL-15 complexed with the IL-15 …; assay: SPR, antibody captured on Protein A chip, IL-15 complex as analyte
Description: Binding of Antibody 70 variants to human IL-15 complexed with the IL-15 Receptor-alpha were assessed using surface plasmon resonance on a BIACORE® T200 (GE Healthcare) system using a Protein A Sensor Chip (GE Healthcare). Antibodies were captured onto the second flow cell to a level of 150-200 RU. Purified cytokines were diluted to 10 μg/mL in HBS-EP+. Binding was measured by injection of […] of each cytokine at a flow rate of […] across both flow cells and allowing 180 s of dissociation time. The chip surface was regenerated between cycles with two 10 sec pulses of 50 mM sodium hydroxide. The running buffer used was HBS-EP+ (GE Healthcare) and all interactions were measured at 25° C. and data collection rate set to 10 Hz.
A summary of the surface plasmon resonance data is shown on FIG. 36. The affinity can be measured by the KD (the equilibrium dissociation constant between the antibody and its antigen). […] The large difference in KD between variants of Antibody 70 and AMG714 is driven by the dissociation rate (kd). IL-15 dissociates from AMG714 ten times faster than the rate of dissociation of IL-15 from Antibody 70 variants. […] This was tested in a cell based potency assay.

[10] = target: T5, IL-15 E98A co-expressed with IL-15Rα (human, UniProt P40933 49-162); assay: SPR
T5 construct: Purified alanine scan construct, expressed in EXPI293F cells with human IL-15Rα
Description: (§1) All interactions were measured at 25° C. and the data collection rate was set to 10 Hz. Data from FC2-1 was used for analysis. The resultant sensorgrams were analysed by creating two custom report points, each calculated for a 5 s window starting either 10 s after injection of the sample (‘early binding’) or 10 s before the end of dissociation (‘late binding’). These values were subtracted from the values for the untransfected control and a relative dissociation rate was estimated by first, taking a ratio of these two custom report points (‘late binding’/‘early binding’) and then, taking the resultant values as a fraction of the value calculated for wild-type human IL-15 complexed with the IL-15 Receptor-alpha (data not shown).
(§2) A Protein A Sensor Chip (GE Healthcare) was used to capture Antibody 70a onto the second flow cell to a capture level of 150-200 RU. Purified IL-15 alanine scan constructs were diluted to 10 μg/mL in HBS-EP+ and then a 2-fold dilution series was made. Binding was measured by injection of 45 μL of each dilution at a flow rate of 30 μL/min across both flow cells and allowing 600 s of dissociation time. The chip surface was regenerated between cycles with a 10 sec pulse of 50 mM sodium hydroxide. The running buffer used was HBS-EP+ (GE Healthcare) All interactions were measured at 25° C. and the data collection rate was set to 10 Hz. Data from Fc2-1 was used for analysis and generated sensorgrams were fitted using a 1:1 Langmuir equation (using local Rmax fitting) to determine KD. […] Antibody 70a had low binding to mutated IL-15 with a Q108A substitution.

[11] = target: T6, IL-15 Q101A co-expressed with IL-15Rα (human, UniProt P40933 49-162); assay: SPR
T6 construct: Purified alanine scan construct, expressed in EXPI293F cells with human IL-15Rα
Description: as §1, §2

[12] = target: T7, IL-15 H105A co-expressed with IL-15Rα (human, UniProt P40933 49-162); assay: SPR
T7 construct: Purified alanine scan construct, expressed in EXPI293F cells with human IL-15Rα
Description: as §1, §2

[13] = target: T4, human IL-15 complexed with the IL-15 …; assay: cell-based or functional assay; remark: listed apart in the source
[14] = target: T1, uncomplexed IL-15 Receptor α; assay: SPR, antibody captured on Protein A chip
IL-2 = IL-2 (UniProt P60568 21-153); assay: SPR, antibody captured on Protein A chip
IL-4 = target: T2, IL-4; assay: SPR, antibody captured on Protein A chip
IL-7 = target: T3, IL-7; assay: SPR, antibody captured on Protein A chip
IL-9 = IL-9 (UniProt P15248 19-144); assay: SPR, antibody captured on Protein A chip
IL-21 = IL-21 (UniProt Q9HBE4 30-162, limits assumed); assay: SPR, antibody captured on Protein A chip
[15] = target: T4, human IL-15 complexed with the IL-15 …; assay: subsequent studies, method not restated; subsequent studies; average; analyte form and method not restated

Sequence of IL-2 (P60568 21-153 limits assumed): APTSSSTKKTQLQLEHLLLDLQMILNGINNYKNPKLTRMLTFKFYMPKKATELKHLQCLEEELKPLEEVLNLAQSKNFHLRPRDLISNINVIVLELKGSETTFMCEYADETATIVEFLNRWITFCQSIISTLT
Sequence of IL-21 (Q9HBE4 30-162 limits assumed): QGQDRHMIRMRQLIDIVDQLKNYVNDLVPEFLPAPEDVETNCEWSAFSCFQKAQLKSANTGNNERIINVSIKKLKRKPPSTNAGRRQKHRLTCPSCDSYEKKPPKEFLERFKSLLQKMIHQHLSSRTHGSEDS
Sequence of IL-9 (P15248 19-144 limits assumed): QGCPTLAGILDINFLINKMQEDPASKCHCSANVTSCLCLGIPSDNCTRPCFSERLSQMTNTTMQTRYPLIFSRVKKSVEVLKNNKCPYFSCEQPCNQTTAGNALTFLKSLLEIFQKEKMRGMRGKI
T5 sequence (P40933 49-162 E146A limits assumed): as the sequence (P40933 49-162 limits assumed, one chain of several) above, with E98A counted along it
T6 sequence (P40933 49-162 Q149A limits assumed): as the sequence (P40933 49-162 limits assumed, one chain of several) above, with Q101A counted along it
T7 sequence (P40933 49-162 H153A limits assumed): as the sequence (P40933 49-162 limits assumed, one chain of several) above, with H105A counted along it

Kd [1] | koff [1] | kon [1] | IC 50 (NK-92) in pM [7] | Max IC50 (pM), NK-92 proliferation assay [13] | Mean IC50 (pM), NK-92 proliferation assay [13] | Min IC50 (pM), NK-92 proliferation assay [13] | binding result [14] | binding result (IL-2) | binding result (IL-4) | binding result (IL-7) | binding result (IL-9) | binding result (IL-21) | Binder | other results
630 pM and 628 pM | 9.43e-05 s⁻¹ and 9.31e-05 s⁻¹ | 148000 M⁻¹ s⁻¹ and 150000 M⁻¹ s⁻¹ | 148 pM |  |  |  |  |  |  |  |  |  | Antibody 4 (antibody, V domains shown, not shown: a dimerising Fc or GST, from section 3.4 on as recombinant human IgG1 lambda; also called parent antibody; parental antibody) VH: QVQLQESGPGLVKPSGTLSLTCAVSGGSISSSNWWSWVRQPPGKGLEWIGEIYHSGNTNYNPSLKSRVTISVDKSKNQFSLKLISVTAADTAVYYCAREGIGWPSFDYWGQGTLVTVSS VL: SSELTQDPAASVALGQTVRITCQGDTLRNYYASWYQQKPGQAPILVIYGKNNRPSGIPDRFSGSSSGNTASLTITGAQAEDEADYYCNSRDSSGKNLVFGGGTKLTVLG | IC50, NK-92 proliferation assay [2]: 100 pM; Kd [3]: 982 pM; koff [3]: 0.000138 s⁻¹; kon [3]: 141000 M⁻¹ s⁻¹; Kd [4]: 1280 pM; koff [4]: 0.000182 s⁻¹; kon [4]: 142000 M⁻¹ s⁻¹; Kd [5]: 979 pM; koff [5]: 0.000166 s⁻¹; kon [5]: 170000 M⁻¹ s⁻¹; Kd [6]: 1070 pM; koff [6]: 0.00016 s⁻¹; kon [6]: 150000 M⁻¹ s⁻¹; binding result [8]: no binding; Kd [9]: 629 pM
133 pM and 149 pM | 3.47e-05 s⁻¹ and 3.75e-05 s⁻¹ | 252000 M⁻¹ s⁻¹ and 261000 M⁻¹ s⁻¹ | 18.2 pM | 22 pM | 14.7 pM | 10.2 pM | no binding (tested: 10 µg/mL) | no binding (tested: 10 µg/mL) | no binding (tested: 10 µg/mL) | no binding (tested: 10 µg/mL) | no binding (tested: 10 µg/mL) | no binding (tested: 10 µg/mL) | Antibody 70a (antibody, human IgG1, lambda, Heavy S54Y + N56Y + I82aS, light N30S + S93L) heavy: not shown light: SSELTQDPAASVALGQTVRITCQGDTLRSYYASWYQQKPGQAPILVIYGKNNRPSGIPDRFSGSSSGNTASLTITGAQAEDEADYYCNSRDLSGKNLVFGGGTKLTVLGQPKAAPSVTLFPPSSEELQANKATLVCLISDFYPGAVTVAWKADSSPVKAGVETTTPSKQSNNKYAASSYLSLTPEQWKSHRSYSCQVTHEGSTVEKTVAPTECS | binding result [10]: binds; binding result [11]: binds; binding result [12]: binds
171 pM and 173 pM | 4.44e-05 s⁻¹ and 4.32e-05 s⁻¹ | 249000 M⁻¹ s⁻¹ and 260000 M⁻¹ s⁻¹ |  | 29.8 pM | 14.6 pM | 7.3 pM | no binding (tested: 10 µg/mL) | no binding (tested: 10 µg/mL) | no binding (tested: 10 µg/mL) | no binding (tested: 10 µg/mL) | no binding (tested: 10 µg/mL) | no binding (tested: 10 µg/mL) | Antibody 70f (antibody, human IgG4 S228P, lambda) heavy: QVQLQESGPGLVKPSGTLSLTCAVSGGSISSSNWWSWVRQPPGKGLEWIGEIYHYGYTNYNPSLKSRVTISVDKSKNQFSLKLSSVTAADTAVYYCAREGIGWPSFDYWGQGTLVTVSSASTKGPSVFPLAPCSRSTSESTAALGCLVKDYFPEPVTVSWNSGALTSGVHTFPAVLQSSGLYSLSSVVTVPSSSLGTKTYTCNVDHKPSNTKVDKRVESKYGPPCPPCPAPEFLGGPSVFLFPPKPKDTLYITREPEVTCVVVDVSQEDPEVQFNWYVDGVEVHNAKTKPREEQFNSTYRVVSVLTVLHQDWLNGKEYKCKVSNKGLPSSIEKTISKAKGQPREPQVYTLPPSQEEMTKNQVSLTCLVKGFYPSDIAVEWESNGQPENNYKTTPPVLDSDGSFFLYSRLTVDKSRWQEGNVFSCSVMHEALHNHYTQKSLSLSLG light: SSELTQDPAASVALGQTVRITCQGDTLRSYYASWYQQKPGQAPILVIYGKNNRPSGIPDRFSGSSSGNTASLTITGAQAEDEADYYCNSRDLSGKNLVFGGGTKLTVLGQPKAAPSVTLFPPSSEELQANKATLVCLISDFYPGAVTVAWKADSSPVKAGVETTTPSKQSNNKYAASSYLSLTPEQWKSHRSYSCQVTHEGSTVEKTVAPTECS | Kd [15]: 430 pM

— patent US20200270339A1 (CEPHALON, published 2020)
